Entries after “also recorded” stand apart in the source; their conditions may differ.
Columns and labels:
O-glycans of α-Her2 = assay: O-mannose chain length analysis by HPAEC-PAD of O-glycans released from α-Her2 from fermented MNS1 strains; type: cell-based, Pichia pastoris
[1] = test system: O-glycosylated α-Her2 heavy chain (Hc); type: cell-based, Pichia pastoris

Row | Molecule | O-Man1 (%) (O-glycans of α-Her2) | effect on percentage of O-Man1 / O-mannose chain length relative to no MNS1 control (O-glycans of α-Her2) | α-Her2 Hc migration on Western blot relative to non-transformed control [1]
1 | Chaetomiun globosum: C. globosum α-1,2-mannosidase, GenBank XP_001227052, SEQ ID NO: 16 (protein, listed as Chaetomium globosum) LPRLEDGGRPGAGREDSFWSKVPLHYPPDSIRPLPTGLPVQYPPIQTTTFPAEEDQAARGRRVQRQKAVRDVFAKCWASYRKLAWGADELTPVSGGRKDPFGGWSATLVDSLDTLWIMDMKTEFDEAVAAADGINFTHTAVDRVNVFETNIRYLGGFLAAFDLSGDKRLLGKATEVGDMLYKAFDTPSHMPITRWDMRAAIKGAKQVASEGLIAEVGTLSMEFTRLSMLTGDPKWFDLAQRITDDMAAQQDSTAVPGLWPLKVNGQKRIFNSGPDFTLGAMADSAYEYLPKMSAMMGGQLPMYQTMYEKAMDAATKHNLFRPMTPTNEDILIAGDVHARENGMEFEARGQHLTCFLGGLMALGGRLYGREKDVIAGRKLTDGCVWTYKAFPQGIMPESFVTVSCPAGDACEWDEGVWKKEVLRKANKDTDGPESNAEAEVIIKKQRLPQGFTAVFDRAYLLRPEAIESVFVLYRVTGKVELLEAAWDMFTAIDKATSTDLANSAIRDVTSTDKPEAKDSMESFWMAETLKYFYLIFSDPELINLNEYVLNTEAHPFRRLLPSP | 89 | reduced O-mannose chain length, but to a lesser extent | faster relative to the non-transformed control but not as fast
2 | Aspergillus saitoi: A. saitoi α-1,2-mannosidase, GenBank BAA08634, SEQ ID NO: 12 (protein, listed as Aspergillus saitoi) YPHFGSSQPVLHSSSDTTQSRADAIKAAFSHAWDGYLQYAFPHDELHPVSNGYGDSRNGWGASAVDALSTAVIMRNATIVNQILDHVGKIDYSKTNTTVSLFETTIRYLGGMLSGYDLLKGPVSDLVQNSSKIDVLLTQSKNLADVLKFAFDTPSGVPYNNLNITSGGNDGAKTNGLAVTGTLALEWTRLSDLTGDTTYADLSQKAESYLLNPQPKSAEPFPGLVGSNINISNGQFTDAQVSWNGGDDSYYEYLIKMYVYDPKRFGLYKDRWVAAAQSTMQHLASHPSSRPDLTFLASYNNGTLGLSSQHLTCFDGGSFLLGGTVLNRTDFINFGLDLVSGCHDTYNSTLTGIGPESFSWDTSDIPSSQQSLYEKAGFYITSGAYILRPEVIESFYYAWRVTGQETYRDWIWSAFSAVNDYCRTSSGFSGLTDVNAANGGSRYDNQESFLFAEVMKYSYMAFAEDAAWQVQPGSGNQFVFNTEAHPVRVSST | 86 | reduced O-mannose chain length, but to a lesser extent | faster relative to the non-transformed control but not as fast
3 | Penicillium citrinum: Penicillium citrinum α-1,2-mannosidase, GenBank BAA08275, SEQ ID NO: 8 (protein, listed as Penicillium citrinum) HPYGETEAVLRSEPKSNQAKADAVKEAFQHAWNGYMKYAFPHDELTPVSNGHADSRNGWGASAVDALSTAVIMGKADVVNAILEHVADIDFSKTSDTVSLFETTIRYLAGMLSGYDLLQGPAKNLVDNQDLIDGLLDQSRNLADVLKFAFDTPSGVPYNNINITSHGNDGATTNGLAVTGTLVLEWTRLSDLTGDEEYAKLSQKAESYLLKPQPSSSEPFPGLVGSSININDGQFADSRVSWNGGDDSFYEYLIKMYVYDPKRFETYKDRWVLAAESTIKHLKSHPKSRPDLTFLSSYSNRNYDLSSQHLTCFDGGSFLLGGTVLDRQDFIDFGLELVDGCEATYNSTLTKIGPDSWGWDPKKVPSDQKEFYEKAGFYISSGSYVLRPEVIESFYYAHRVTGKEIYRDWVWNAFVAINSTCRTDSGFAAVSDVNKANGGSKYDNQESFLFAEVMKYSYLAHSEDAAWQVQKGGKNTFVYNTEAHPISVARN | 83 | reduced O-mannose chain length, but to a lesser extent | –
4 | Aspergillus oryzae: A. oryzae α-1,2-mannosidase, GenBank BAE57653, SEQ ID NO: 14 (protein, listed as Aspergillus oryzae) YPQFKFEQRVARSNSSESRANAVKEAFVHAWDGYMQYAYPHDELHPISNGVGDSRNGWGASAVDALSTAVIMGNETIVNQILDHIATIDYSKTDDQVSLFETTIRYLGGMLSGYDLLKGPASNLVKDQAKVKTLLDQSQNLADVLKFAFDTPSGIPYNNINITSHGNDGATTNGLAVTGTLVLEWTRLSDLTGDTEYAQLSQKAEDYLLNPSPKSAEPFEGLVGSHINISNGAFADGQVSWNGGDDSFYEYLIKMYVYDPKRFSTYGDRWVKAAESSIKHLASHPEKRPDLTFLASYNDGQYGLSSQHLTCFDGGSFLLGGTVLDRDDFIQFGLDLVKGCHETYNQTLTGIGPESFGWDPKNVPSDQKELYERAGFYISSGAYILRPEVIESFYYAWRITGQEIYREWVWNAFVNINKYCRTDSGFAGLTNVNAANGGGRYDNQESFLFAEVLKYVYLTFAPDNEWQVQRGKGNKFVYNTEAHPVRVAA | 89 | reduced O-mannose chain length, but to a lesser extent | migration is increased; also recorded: faster relative to the non-transformed control but not as fast

— patent publication US20120135461A1, “PRODUCTION OF GLYCOPROTEINS WITH REDUCED O-GLYCOSYLATION COMPRISING THE USE OF AN ALPHA-1,2-MANNOSIDASE” (priority 2010, published 2012)
